Measurements as given in patent US20020146804.

T1: mouse procaspase-14
T1 chain: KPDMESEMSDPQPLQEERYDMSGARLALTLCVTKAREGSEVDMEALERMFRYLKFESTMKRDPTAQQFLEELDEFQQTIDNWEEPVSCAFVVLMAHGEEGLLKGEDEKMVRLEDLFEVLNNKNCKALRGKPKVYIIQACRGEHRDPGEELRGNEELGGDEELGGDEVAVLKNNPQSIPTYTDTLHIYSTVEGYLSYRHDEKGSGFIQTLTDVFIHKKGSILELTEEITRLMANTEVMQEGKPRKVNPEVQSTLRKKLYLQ

T2: mouse procaspase-14
T2 sequence: T1 chain

B1: cytochrome c-activated caspase-3 in S-100 extract of human embryonic kidney 293 cells (protein)
chain: SGISLDNSYKMDYPEMGLCIIINNKNFHKSTGMTSRSGTDVDAANLRETFRNLKYEVRNKNDLTREEIVELMRDVSKEDHSKRSSFVCVLLSHGEEGIIFGTNGPVDLKKITNFFRGDRCRSLTGKPKLFIIQACRGTELDCGIETDSGVDDDMACHKIPVEADFLYAYSTAPGYYSWRNSKDGSWFIQSLCAMLKQYADKLEFMHILTRVNRKVATEFESFSFDATFHAKKQIPCIVSMLTKELYFYH
B2: cytochrome c-activated caspase-6 in S-100 extract of human embryonic kidney 293 cells (protein)
chain: AFYKREMFDPAEKYKMDHRRRGIALIFNHERFFWHLTLPERRGTCADRDNLTRRFSDLGFEVKCFNDLKAEELLLKIHEVSTVSHADADCFVCVFLSHGEGNHIYAYDAKIEIQTLTGLFKGDKCHSLVGKPKIFIIQACRGNQHDVPVIPLDVVDNQTEKLDTNITEVDAASVYTLPAGADFLMCYSVAEGYYSHRETVNGSWYIQDLCEMLGKYGSSLEFTELLTLVNRKVSQRRVDFCKDPSAIGKKQVPCFASMLTKKLHFFPKSN
B3: cytochrome c-activated caspase-7 in S-100 extract of human embryonic kidney 293 cells (protein)
chain: AKPDRSSFVPSLFSKKKKNVTMRSIKTTRDRVPTYQYNMNFEKLGKCIIINNKNFDKVTGMGVRNGTDKDAEALFKCFRSLGFDVIVYNDCSCAKMQDLLKKASEEDHTNAACFACILLSHGEENVIYGKDGVTPIKDLTAHFRGDRCKTLLEKPKLFFIQACRGTELDDGIQADSGPINDTDANPRYKIPVEADFLFAYSTVPGYYSWRSPGRGSWFVQALCSILEEHGKDLEIMQILTRVNDRVARHFESQSDDPHFHEKKQIPCVVSMLTKELYFSQ
B4: cytochrome c-activated caspase-9 in S-100 extract of human embryonic kidney 293 cells (protein)
chain: MDEADRRLLRRCRLRLVEELQVDQLWDALLSRELFRPHMIEDIQRAGSGSRRDQARQLIIDLETRGSQALPLFISCLEDTGQDMLASFLRTNRQAAKLSKPTLENLTPVVLRPEIRKPEVLRPETPRPVDIGSGGFGDVGALESLRGNADLAYILSMEPCGHCLIINNVNFCRESGLRTRTGSNIDCEKLRRRFSSLHFMVEVKGDLTAKKMVLALLELAQQDHGALDCCVVVILSHGCQASHLQFPGAVYGTDGCPVSVEKIVNIFNGTSCPSLGGKPKLFFIQACGGEQKDHGFEVASTSPEDESPGSNPEPDATPFQEGLRTFDQLDAISSLPTPSDIFVSYSTFPGFVSWRDPKSGSWYVETLDDIFEQWAHSEDLQSLLLRVANAVSVKGIYKQMPGCFNFLRKKLFFKTS

Target: T1, mouse procaspase-14

Molecule | cleavage/activation of 35S labeled procaspase-14 in S-100 extracts activated by cytochrome c and dATP, SDS-PAGE and autoradiography
B1 | no cleavage/activation of ^35S labeled procaspase-14 was observed in S-100 extracts activated by cytochrome c and dATP
B2 | no cleavage/activation of ^35S labeled procaspase-14 was observed in S-100 extracts activated by cytochrome c and dATP
B3 | no cleavage/activation of ^35S labeled procaspase-14 was observed in S-100 extracts activated by cytochrome c and dATP
B4 | no cleavage/activation of ^35S labeled procaspase-14 was observed in S-100 extracts activated by cytochrome c and dATP

Tested on: T2, mouse procaspase-14

Molecule | processing (cleavage) of 35S labeled procaspase-14, SDS-PAGE and autoradiography
purified recombinant caspase-10 | a significant amount of processing was observed when procaspase-14 was incubated with Granzyme B, caspase-10 and caspase-8, but not with other caspases
purified recombinant caspase-8 | a significant amount of processing was observed when procaspase-14 was incubated with Granzyme B, caspase-10 and caspase-8, but not with other caspases
purified recombinant caspase-14 | Some processing was also observed with recombinant caspase-14 itself
purified Granzyme B | a significant amount of processing was observed when procaspase-14 was incubated with Granzyme B, caspase-10 and caspase-8, but not with other caspases
